Reference: patent US20210102195A1 (TWIST BIOSCIENCE, published 2021)

Columns and labels:
human CD3 epsilon = molecular target: T1, human CD3 epsilon (human, UniProt P07766 23-126, limits assumed); test: affinity of IgG; method not stated; human CD3 epsilon
T1 construct: also called hCD3; hCD3 epsilon

CRTH2R [1] = molecular target: T2, CRTH2R (UniProt Q9Y5Y4 1-395, limits assumed); test: flow cytometry (MFI), CHO CRTH2R-positive cells against parental CHO cells, 3-fold titration from 100 nM; grey = CRTH2R cells, black = parental cells (no legend on the panel)
T2 construct: whole, on cells; also called Prostaglandin D2 receptor 2 (DP2 or CRTH2) receptor
T2 sequence (looked up): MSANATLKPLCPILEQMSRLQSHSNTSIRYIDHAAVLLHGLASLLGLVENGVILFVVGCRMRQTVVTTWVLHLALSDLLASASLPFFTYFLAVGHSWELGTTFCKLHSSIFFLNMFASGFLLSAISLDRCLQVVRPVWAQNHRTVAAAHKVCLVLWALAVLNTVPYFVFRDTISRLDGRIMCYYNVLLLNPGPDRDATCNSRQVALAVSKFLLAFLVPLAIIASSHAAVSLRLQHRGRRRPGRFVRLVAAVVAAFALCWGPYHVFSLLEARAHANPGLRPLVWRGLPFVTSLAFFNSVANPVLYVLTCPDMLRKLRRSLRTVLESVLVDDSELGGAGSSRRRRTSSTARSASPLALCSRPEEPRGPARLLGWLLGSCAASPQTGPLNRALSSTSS
Method: (§1) Cell binding of anti-CRTH2R antibodies was determined by testing on CHO CRTH2R-positive cells (GFP+) and parental CHO cells (GFP−), comparing parental negative and target positive cells to rule out false-positives. Antibodies as listed in Table 14A were titrated starting at 100 nM (15 ug/mL) with 3-fold titrations, for a total of 8 points. Two antibodies (gPCR-51 and gPCR-52) were used as a positive control.

CRTH2R [2] = molecular target: T2, CRTH2R; test: cell-based or functional assay
CRTH2R [3] = molecular target: T2, CRTH2R; test: flow cytometry (MFI), CHO CRTH2R-positive cells against parental CHO cells; same panel as in FIG. 15C; grey = CRTH2R cells, black = parental cells (no legend on the panel)
Method: as §1

T1 sequence (P07766 23-126 limits assumed): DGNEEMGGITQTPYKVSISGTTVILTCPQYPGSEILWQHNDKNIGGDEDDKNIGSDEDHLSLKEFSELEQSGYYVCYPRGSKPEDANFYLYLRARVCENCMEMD

B1: CD3-56-05 (antibody, V domains shown)
VH: EVQLLESGGGLVQPGGSLRLSCAASGFTFSSYAMNWVRQAPGKGLEWVSAVSGSGGRTYYADSVKGRFTISRDNSKNTLYLQMNSLRAEDTAVYYCARERATTLDYWGQGTLVTVSS
VL: DIQMTQSPSSLSASVGDRVTITCRASQTIYSHLNWYQQKPGKAPKLLIYVASRLQSGVPSRFSGSGSGTDFTLTISSLQPEDFATYYCQQSFSTSWTFGGGTKVEIK
notes: IgG; also called CD3-56-5
Kd (human CD3 epsilon): 67 nM

B2: CRTH2-32 (antibody, V domains shown)
VH: QVQLVESGGGVVQPGRSLRLSCAASGFTFSKHGMHWVRQAPGKGLEWVAFISYEGSEKYYADSVKGRFTISRDNSKNTLYLQMNSLRAEDTAVYYCARDMYYDFHYSTVGATYYYYLGSETEVVPADDAFDIWGQGTLVTVSS
VL: QSALTQPASVSGSPGQSITISCTGTSSGVGGYDYVSWYQQHPGKAPKLMIYDDNNRPSGVSNRFSGSKSGNTASLTISGLQAEDEADYYCSSYTGSSTLYVFGGGTKLTVL
notes: CRTH2R IgG
EC50 (CRTH2R [1]): 12.4 nM | IC50 fold difference of the PGD2 dose response (cAMP) with 100 nM IgG (CRTH2R [2]): > 2 fold | EC50 (CRTH2R [3]): 12.4 nM
